Test results reported in IntAct's records for PubMed 17357085.

B1: Homeobox protein SIX5 (Homo sapiens), Q8N196 (parent)
chain: MATLPAEPSAGPAAGGEAVAAAAATEEEEEEARQLLQTLQAAEGEAAAAAGAGAGAAAAGAEGPGSPGVPGSPPEAASEPPTGLRFSPEQVACVCEALLQAGHAGRLSRFLGALPPAERLRGSDPVLRARALVAFQRGEYAELYRLLESRPFPAAHHAFLQDLYLRARYHEAERARGRALGAVDKYRLRKKFPLPKTIWDGEETVYCFKERSRAALKACYRGNRYPTPDEKRRLATLTGLSLTQVSNWFKNRRQRDRTGAGGGAPCKSESDGNPTTEDESSRSPEDLERGAAPVSAEAAAQGSIFLAGTGPPAPCPASSSILVNGSFLAASGSPAVLLNGGPVIINGLALGEASSLGPLLLTGGGGAPPPQPSPQGASETKTSLVLDPQTGEVRLEEAQSEAPETKGAQVAAPGPALGEEVLGPLAQVVPGPPTAATFPLPPGPVPAVAAPQVVPLSPPPGYPTGLSPTSPLLNLPQVVPTSQVVTLPQAVGPLQLLAAGPGSPVKVAAAAGPANVHLINSGVGVTALQLPSATAPGNFLLANPVSGSPIVTGVALQQGKIILTATFPTSMLVSQVLPPAPGLALPLKPETAISVPEGGLPVAPSPALPEAHALGTLSAQQPPPAAATTSSTSLPFSPDSPGLLPNFPAPPPEGLMLSPAAVPVWSAGLELSAGTEGLLEAEKGLGTQAPHTVLRLPDPDPEGLLLGATAGGEVDEGLEAEAKVLTQLQSVPVEEPLEL
partner: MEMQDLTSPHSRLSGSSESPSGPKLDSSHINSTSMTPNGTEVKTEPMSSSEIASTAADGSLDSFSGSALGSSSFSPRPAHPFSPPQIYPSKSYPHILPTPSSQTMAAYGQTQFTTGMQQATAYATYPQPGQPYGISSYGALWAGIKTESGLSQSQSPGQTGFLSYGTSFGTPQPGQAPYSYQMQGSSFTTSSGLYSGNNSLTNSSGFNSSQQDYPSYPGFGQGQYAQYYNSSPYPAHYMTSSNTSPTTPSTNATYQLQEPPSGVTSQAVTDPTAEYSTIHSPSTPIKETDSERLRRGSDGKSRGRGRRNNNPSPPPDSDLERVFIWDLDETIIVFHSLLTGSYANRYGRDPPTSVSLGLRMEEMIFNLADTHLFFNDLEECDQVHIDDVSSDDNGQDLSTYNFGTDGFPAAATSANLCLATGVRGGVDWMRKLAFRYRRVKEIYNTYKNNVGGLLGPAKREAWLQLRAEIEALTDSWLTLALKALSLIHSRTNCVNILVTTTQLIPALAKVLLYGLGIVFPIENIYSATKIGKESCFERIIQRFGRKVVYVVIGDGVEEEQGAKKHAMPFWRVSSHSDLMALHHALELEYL

Variants of: B1
Settings: with eya1_mouse Eya1, P97767

effect of a mutation on the interaction | Variant
decreasing interaction | A158T
decreasing interaction | T552M
